Assay [1] has as its target T1, HD21 (huntingtin exon 1 protein with 21 polyQ repeats after cleavage of the GST tag; aggregation reaction) (human), P42858.
T1 chain: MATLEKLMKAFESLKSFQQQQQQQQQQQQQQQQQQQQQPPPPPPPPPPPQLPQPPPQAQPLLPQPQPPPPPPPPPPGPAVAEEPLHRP
Description: ELISA. The note with it: chains VH:VL; remark: other sources report otherwise.

For assay [2], the target named is all four species (aggregated HD49, aggregated HD21, soluble GST-HD49 and GST-HD21). Briefly: direct ELISA, antigen coated at 5 ug/ml. On the technique in general: ELISA stands for enzyme-linked immunosorbent assay.

B1: NI-302.8M1 (protein)
chain 1: EVQLVQSGAEVKKPGASVKVSCKASGYTFTIYYMHWVRQAPGQGLEWMGGISPSGAHTMYAQNFQGRVTVTRDTSTSTVYMELSSLRSEDTAVYYCARGSTVTNYRPFDYWGQGTLVTVSS
chain 2: DIQMTQSPSSLSASVGDRVTITCRASQDISNYLAWYQQKPGKVPKLLIFAASTLQSGVPSRFGGSGSGTDFTLTISSLQPEDVATYYCQNYNSGPPPFGPGTKVDIK
On to B1, for which the EC50 in assay [1] was determined as 0.002 nM. This lies in the picomolar range.

B2: NI-302.15F9 (antibody, human IgG1, V domains shown)
VH: EVQLVESGGGLVTPGGSLRLSCEASGFLFKNSSMNWVRQTPGKGLEWVSSIDTSATNYKYYADSVKGRFTISRDDATNSLYLQMNSLRADDTATYYCARGYYTPRDFDYWGQGTLVTVSS
VL: DVVMTQSPQTLSVSLGQAASISCRSSQSLLYRDNNTYLNWFHQRPGQSPRRLIYRASDRDSGVPDRFSGGGSGTDFTLKISGVEAEDVGTYYCMQGTHWPRTFGQGTKVEIK
With B2, the EC50 in assay [2] lay in the range of 5 to 35 nM.

B3: NI-302.12H2 (protein)
chain 1: EVQLVQSGGGLVQPGGSLRLSCEASGFTFSNYAMGWVRQAPGKGLEWVSVISGTGGSTYYADSVKGRFTISRDNSMNTLYLQMNSPRADDTAVYYCAKDLRKISGPLYYYGMDVWGQGTTVTVSS
chain 2: EIVLTQSPGTLSLSPGERATLSCRASQSVSSGYLAWYQQKPGQAPRLLIYGASTRATGIPDRFSGSGSGTDFTLTISRLEPEDFAVYYCQHYGASSYTFGQGTKLEIK
The molecule B3 gave an EC50 in assay [1] of 0.05 nM.

B4: NI-302.4A6 (protein)
chain 1: EVQLVESGGGLVQPGGSLRLSCAASGFTFSAYAMSWVRQAPGKGLEWVSTISGSGGSTYYADSVKGRFSISRDNSKNTLYLQMNSLRAEDTAVYFCAKVTTELYGANSYYYYMDVWGKGTTVTVSS
chain 2: EIVLTQSPGTLSLSPGERATLSCRASQSVVSRYLAWYQQKPGQAPRLLIYGASSRATGIPDRFSGSGSGTDFTLTISRLEPEDFAMYYCQLYGNSQTFGQGTKVEIK
In assay [1], B4 had an EC50 of 3 nM.

A word on the EC50: it is the concentration that produces a half-maximal response. High values mean lower potency in that assay, low ones higher potency in that assay.

These data come from patent publication US20170166631A1.
